This data set has as its target integrin α5β1 (in human FFPE glioblastoma sections) (human, UniProt P08648;P05556 42-1049;21-798). Description: aptahistofluorescence; FFPE GBM, 1 or 2 µM aptamer; frozen sections too low to detect; Flow cytometry: 300,000 cells detached with 0.2 M EDTA, 30 min with Cy5-aptamer; tissue: selection buffer, 2% BSA +/- 100 µg/mL yeast tRNA block, 1 h on ice; aptamers denatured at 95 °C 3 min then ice 5 min; buffer composition, salt and pH not given in material. The conditions noted are these: protein: native; copies: 1;1; label: 3'-Cy5.

Sequence of integrin α5β1 (in human FFPE glioblastoma sections) (P08648 42-1049, chain 1 of 2): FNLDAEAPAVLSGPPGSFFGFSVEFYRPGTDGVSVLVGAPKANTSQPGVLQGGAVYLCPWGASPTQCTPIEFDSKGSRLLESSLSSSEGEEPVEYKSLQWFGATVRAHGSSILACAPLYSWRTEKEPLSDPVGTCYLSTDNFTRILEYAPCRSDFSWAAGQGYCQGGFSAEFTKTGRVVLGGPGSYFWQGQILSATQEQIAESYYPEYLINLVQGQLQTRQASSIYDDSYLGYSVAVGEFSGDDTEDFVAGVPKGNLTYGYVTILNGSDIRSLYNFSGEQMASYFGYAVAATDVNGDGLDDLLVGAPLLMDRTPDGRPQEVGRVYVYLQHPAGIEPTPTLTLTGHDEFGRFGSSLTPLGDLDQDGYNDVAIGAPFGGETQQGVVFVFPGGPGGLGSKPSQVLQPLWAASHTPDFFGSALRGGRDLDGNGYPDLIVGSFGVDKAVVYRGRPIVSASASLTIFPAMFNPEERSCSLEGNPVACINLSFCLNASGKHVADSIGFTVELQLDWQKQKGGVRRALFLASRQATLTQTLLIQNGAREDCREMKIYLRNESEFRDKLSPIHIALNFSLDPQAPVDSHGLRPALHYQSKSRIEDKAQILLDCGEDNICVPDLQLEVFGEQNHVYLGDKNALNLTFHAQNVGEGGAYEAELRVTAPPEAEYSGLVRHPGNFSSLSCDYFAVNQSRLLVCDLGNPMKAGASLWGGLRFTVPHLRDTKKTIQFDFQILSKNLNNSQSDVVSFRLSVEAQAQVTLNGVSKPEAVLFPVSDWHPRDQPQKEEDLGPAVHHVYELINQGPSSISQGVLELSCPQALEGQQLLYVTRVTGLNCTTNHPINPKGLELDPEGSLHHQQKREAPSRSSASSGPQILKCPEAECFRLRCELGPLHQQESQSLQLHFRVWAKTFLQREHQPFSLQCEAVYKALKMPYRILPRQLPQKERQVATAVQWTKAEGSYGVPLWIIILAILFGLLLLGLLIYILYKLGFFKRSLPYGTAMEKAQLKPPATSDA
Sequence of integrin α5β1 (in human FFPE glioblastoma sections) (P05556 21-798, chain 2 of 2): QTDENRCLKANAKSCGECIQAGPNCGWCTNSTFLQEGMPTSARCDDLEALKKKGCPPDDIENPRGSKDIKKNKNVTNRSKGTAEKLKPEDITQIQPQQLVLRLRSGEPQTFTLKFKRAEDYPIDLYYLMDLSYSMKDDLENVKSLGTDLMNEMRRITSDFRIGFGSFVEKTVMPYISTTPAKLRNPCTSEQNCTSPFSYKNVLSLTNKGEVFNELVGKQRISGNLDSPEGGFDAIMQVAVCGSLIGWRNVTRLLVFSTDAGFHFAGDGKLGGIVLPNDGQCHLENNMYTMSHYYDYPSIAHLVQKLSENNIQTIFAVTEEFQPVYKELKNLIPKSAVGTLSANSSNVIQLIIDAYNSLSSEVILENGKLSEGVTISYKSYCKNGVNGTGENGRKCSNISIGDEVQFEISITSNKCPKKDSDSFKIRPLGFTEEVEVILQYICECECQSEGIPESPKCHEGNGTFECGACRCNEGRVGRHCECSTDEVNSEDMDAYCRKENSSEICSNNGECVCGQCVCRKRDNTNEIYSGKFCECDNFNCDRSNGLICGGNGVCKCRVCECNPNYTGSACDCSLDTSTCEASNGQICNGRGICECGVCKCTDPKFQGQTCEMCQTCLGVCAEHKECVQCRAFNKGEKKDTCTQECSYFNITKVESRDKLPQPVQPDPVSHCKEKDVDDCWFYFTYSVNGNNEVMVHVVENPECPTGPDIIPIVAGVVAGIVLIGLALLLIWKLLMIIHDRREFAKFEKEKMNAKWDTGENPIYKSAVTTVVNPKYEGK

B1: H02-Cy5 (XNA)
RNA: GGUUACCAGCCUUCACUGCGGACGGACAGAGAGUGCAACCUGCCGUGCCGCACCACGGUCGGUCACAC
modifications: 2'-fluoro pyrimidines (2'F-RNA)
Regarding B1, the binding result is “binds”.

(Values after article PMC9609998, “Bioimaging Nucleic-Acid Aptamers with Different Specificities in Human Glioblastoma Tissues Highlights Tumoral Heterogeneity”.)
